In IntAct's records for PubMed 18653891:

B1: Serine/threonine-protein kinase BSK1 (Arabidopsis thaliana (Mouse-ear cress)), Q944A7 (parent)
chain: MGCCQSLFSGDNPLGKDGVQPQPLSQNNHGGATTADNGGSGGASGVGGGGGGGGIPSFSEFSFADLKAATNNFSSDNIVSESGEKAPNLVYKGRLQNRRWIAVKKFTKMAWPEPKQFAEEAWGVGKLRHNRLANLIGYCCDGDERLLVAEFMPNDTLAKHLFHWENQTIEWAMRLRVGYYIAEALDYCSTEGRPLYHDLNAYRVLFDEDGDPRLSCFGLMKNSRDGKSYSTNLAYTPPEYLRNGRVTPESVTYSFGTVLLDLLSGKHIPPSHALDMIRGKNIILLMDSHLEGKFSTEEATVVVELASQCLQYEPRERPNTKDLVATLAPLQTKSDVPSYVMLGIKKQEEAPSTPQRPLSPLGEACSRMDLTAIHQILVMTHYRDDEGTNELSFQEWTQQMKDMLDARKRGDQSFREKDFKTAIDCYSQFIDVGTMVSPTVFGRRSLCYLLCDQPDAALRDAMQAQCVYPDWPTAFYMQSVALAKLNMNTDAADMLNEAAQLEEKRQRGGRGS

Variants of: B1
Settings: with bri1_arath BRI1, O22476
bri1_arath BRI1, O22476, sequence (O22476 whole entry): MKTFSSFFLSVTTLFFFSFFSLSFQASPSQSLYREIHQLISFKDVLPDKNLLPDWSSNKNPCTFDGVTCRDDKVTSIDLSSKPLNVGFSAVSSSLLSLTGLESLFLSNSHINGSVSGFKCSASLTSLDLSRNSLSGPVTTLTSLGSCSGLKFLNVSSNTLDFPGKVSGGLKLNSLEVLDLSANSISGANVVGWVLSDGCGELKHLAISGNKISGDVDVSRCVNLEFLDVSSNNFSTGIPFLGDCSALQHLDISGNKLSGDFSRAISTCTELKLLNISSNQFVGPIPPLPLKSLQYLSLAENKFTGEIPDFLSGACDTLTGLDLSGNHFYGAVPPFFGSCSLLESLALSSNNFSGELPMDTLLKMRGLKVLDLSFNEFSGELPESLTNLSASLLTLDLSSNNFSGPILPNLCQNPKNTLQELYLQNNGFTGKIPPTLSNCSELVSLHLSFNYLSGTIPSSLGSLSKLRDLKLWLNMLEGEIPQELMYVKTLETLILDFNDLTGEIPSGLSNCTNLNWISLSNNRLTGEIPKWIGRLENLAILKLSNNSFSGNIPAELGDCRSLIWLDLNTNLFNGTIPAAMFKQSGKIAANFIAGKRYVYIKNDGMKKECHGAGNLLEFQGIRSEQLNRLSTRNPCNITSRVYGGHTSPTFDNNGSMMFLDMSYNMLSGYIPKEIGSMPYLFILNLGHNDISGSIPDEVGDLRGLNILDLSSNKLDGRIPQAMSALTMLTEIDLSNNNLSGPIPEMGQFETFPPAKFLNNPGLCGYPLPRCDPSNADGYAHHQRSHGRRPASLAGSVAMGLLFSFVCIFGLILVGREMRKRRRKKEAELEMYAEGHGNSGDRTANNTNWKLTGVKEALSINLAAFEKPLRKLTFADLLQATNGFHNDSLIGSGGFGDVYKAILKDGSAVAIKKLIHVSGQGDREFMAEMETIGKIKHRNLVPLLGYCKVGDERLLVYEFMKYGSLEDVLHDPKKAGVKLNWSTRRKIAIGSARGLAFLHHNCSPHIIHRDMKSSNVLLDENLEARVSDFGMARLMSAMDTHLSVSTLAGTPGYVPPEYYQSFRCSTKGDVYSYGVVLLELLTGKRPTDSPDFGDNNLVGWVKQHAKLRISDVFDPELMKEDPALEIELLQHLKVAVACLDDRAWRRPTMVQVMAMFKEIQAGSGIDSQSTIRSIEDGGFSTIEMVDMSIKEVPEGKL

effect of a mutation on the interaction | Variant
decreasing interaction | S230A
